Data as given in US20050037969A1 (ARBOR VITA, published 2005).
Ends that are not written are not given here. * marks the point of attachment. Biotin = O=C1N[C@H]2[C@H](CS[C@H]2CCCCC(=O)*)N1

B1: PAG C-terminal peptide AA58L, biotinylated (peptide)
peptide: Biotin-KENDYESISDLQQGRDITRL
notes: also called Phosphoprotein Associated with GEMs
B2: CD5 C-terminal peptide AA49L (peptide)
peptide: Biotin-SMQPDNSSDSDYDLHGAQRL
notes: Only the last four residues are seen in the excerpts

Each binder was assayed against T1, GST-cytohesin binding protein PDZ domain fusion protein (Homo sapiens (Human), UniProt O60759 74-165) (assay: A/G assays).
T1 construct: also called CBP; not shown: glutathione S-transferase encoded by vector pGEX-3X (Pharmacia)
T1 sequence: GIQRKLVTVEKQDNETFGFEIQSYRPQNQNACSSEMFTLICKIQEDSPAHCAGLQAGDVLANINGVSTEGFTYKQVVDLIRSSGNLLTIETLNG

Binding result, no binding:
Biotin-AWDDSARAAGGQGLHVTAL [LPAP C-terminal peptide AA30L, biotinylated]
B1
Biotin-QATSENGHSARQHVVADTEL [CD34 C-terminal peptide AA7L, biotinylated]
B2

Each binder was assayed against T2, ConEn PDZ-GST fusion protein (Homo sapiens (Human), UniProt Q969H4 193-287) (assay: A/G assays).
T2 construct: The label ConEn is not explained in the excerpts
T2 sequence: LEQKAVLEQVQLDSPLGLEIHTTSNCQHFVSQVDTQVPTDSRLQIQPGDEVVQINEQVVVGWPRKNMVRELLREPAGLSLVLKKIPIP

Binding result, no binding:
Biotin-AWDDSARAAGGQGLHVTAL [LPAP C-terminal peptide AA30L, biotinylated]
B1
Biotin-QATSENGHSARQHVVADTEL [CD34 C-terminal peptide AA7L, biotinylated]
B2

What follows are binders tested against T3, GST-prIL16 fusion protein (PDZ domains 1-2) (Homo sapiens (Human), UniProt Q14005 1111-1324) (assay: A/G assays).
T3 construct: also called putative interleukin 16 precursor; not shown: glutathione S-transferase encoded by vector pGEX-3X (Pharmacia)
T3 sequence: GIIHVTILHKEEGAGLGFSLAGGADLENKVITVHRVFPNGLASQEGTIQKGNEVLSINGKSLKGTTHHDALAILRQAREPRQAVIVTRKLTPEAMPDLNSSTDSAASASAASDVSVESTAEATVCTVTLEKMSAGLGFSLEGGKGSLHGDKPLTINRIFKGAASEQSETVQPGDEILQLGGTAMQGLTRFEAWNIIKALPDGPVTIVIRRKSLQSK

Binding result, no binding:
Biotin-AWDDSARAAGGQGLHVTAL [LPAP C-terminal peptide AA30L, biotinylated]
B1
Biotin-QATSENGHSARQHVVADTEL [CD34 C-terminal peptide AA7L, biotinylated]
B2

Each binder was assayed against T4, NSP PDZ-GST fusion protein (Homo sapiens (Human), UniProt Q92743 370-466) (assay: A/G assays).
T4 construct: The label NSP is not explained in the excerpts
T4 sequence (Q92743 other isoform, or with tags, fused parts or gaps limits assumed): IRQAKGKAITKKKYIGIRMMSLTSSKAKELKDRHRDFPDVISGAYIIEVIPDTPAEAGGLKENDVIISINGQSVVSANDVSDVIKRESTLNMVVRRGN

Binding result, no binding:
Biotin-AWDDSARAAGGQGLHVTAL [LPAP C-terminal peptide AA30L, biotinylated]
B1
Biotin-QATSENGHSARQHVVADTEL [CD34 C-terminal peptide AA7L, biotinylated]
B2

What follows are binders tested against T5, GST-TAX-IP40 PDZ domain fusion protein (human, UniProt Q6B4M5 150-252 (rat entry)) (assay: A/G assays).
T5 construct: also called TAX40; not shown: glutathione S-transferase encoded by vector pGEX-3X (Pharmacia)
T5 sequence: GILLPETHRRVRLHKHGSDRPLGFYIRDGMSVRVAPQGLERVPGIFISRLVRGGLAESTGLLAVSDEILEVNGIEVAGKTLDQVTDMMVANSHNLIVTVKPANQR

Binding result, no binding:
Biotin-AWDDSARAAGGQGLHVTAL [LPAP C-terminal peptide AA30L, biotinylated]
B1
Biotin-QATSENGHSARQHVVADTEL [CD34 C-terminal peptide AA7L, biotinylated]
B2

These binders were tested against T6, GST-PDZK1 fusion protein (PDZ domains 2-4) (Homo sapiens, UniProt Q5T2W1 134-457) (assay: A/G assays).
T6 construct: not shown: glutathione S-transferase encoded by vector pGEX-3X (Pharmacia)
T6 sequence: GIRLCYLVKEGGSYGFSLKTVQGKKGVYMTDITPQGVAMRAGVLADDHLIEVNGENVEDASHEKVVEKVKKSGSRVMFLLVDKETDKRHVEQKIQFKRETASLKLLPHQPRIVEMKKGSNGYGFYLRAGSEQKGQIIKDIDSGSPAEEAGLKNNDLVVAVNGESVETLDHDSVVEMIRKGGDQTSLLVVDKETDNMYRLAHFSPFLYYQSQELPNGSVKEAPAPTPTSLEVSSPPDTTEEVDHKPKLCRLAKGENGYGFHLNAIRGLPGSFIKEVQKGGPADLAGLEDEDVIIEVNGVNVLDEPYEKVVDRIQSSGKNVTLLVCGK

Binding result, no binding:
Biotin-AWDDSARAAGGQGLHVTAL [LPAP C-terminal peptide AA30L, biotinylated]
B1
Biotin-QATSENGHSARQHVVADTEL [CD34 C-terminal peptide AA7L, biotinylated]
B2

Molecular target: T7, X11β PDZ-GST fusion protein (Rattus norvegicus (Rat), UniProt O35431 560-745)
T7 construct: Order of GST and PDZ part and limits not seen in the excerpts
T7 chain: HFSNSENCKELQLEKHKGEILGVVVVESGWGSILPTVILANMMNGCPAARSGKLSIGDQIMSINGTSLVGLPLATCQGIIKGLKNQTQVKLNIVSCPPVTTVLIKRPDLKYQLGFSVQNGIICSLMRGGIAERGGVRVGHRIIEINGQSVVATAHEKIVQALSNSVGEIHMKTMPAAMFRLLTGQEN
Test: A/G assays

Binding result, no binding:
Biotin-AWDDSARAAGGQGLHVTAL [LPAP C-terminal peptide AA30L, biotinylated]
B1
Biotin-QATSENGHSARQHVVADTEL [CD34 C-terminal peptide AA7L, biotinylated]
B2

These binders were tested against T8, K858 PDZ-GST fusion protein (Homo sapiens (Human), UniProt Q8WWI1 1038-1131) (assay: A/G assays).
T8 construct: Order of GST and PDZ part and limits not seen in the excerpts
T8 sequence: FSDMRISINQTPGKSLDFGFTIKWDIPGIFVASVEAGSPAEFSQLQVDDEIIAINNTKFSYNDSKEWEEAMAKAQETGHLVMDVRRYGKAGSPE

Binding result, no binding:
Biotin-AWDDSARAAGGQGLHVTAL [LPAP C-terminal peptide AA30L, biotinylated]
B1
Biotin-QATSENGHSARQHVVADTEL [CD34 C-terminal peptide AA7L, biotinylated]
B2

Molecular target: T9, GST-TAX-IP2 PDZ domain fusion protein (human, UniProt O14908 129-216)
T9 construct: also called TAX-1P2; TAX2; not shown: glutathione S-transferase encoded by vector pGEX-3X (Pharmacia)
T9 chain: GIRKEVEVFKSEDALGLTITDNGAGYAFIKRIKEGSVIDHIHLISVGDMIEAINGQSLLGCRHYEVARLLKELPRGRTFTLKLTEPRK
Test: A/G assays

Binding result, no binding:
Biotin-AWDDSARAAGGQGLHVTAL [LPAP C-terminal peptide AA30L, biotinylated]
B1
Biotin-QATSENGHSARQHVVADTEL [CD34 C-terminal peptide AA7L, biotinylated]
B2

Each binder was assayed against T10, GST-AF6 PDZ domain fusion protein (Homo sapiens (Human), UniProt P55196 1001-1093) (assay: A/G assays).
T10 construct: also called af-6 protein; not shown: glutathione S-transferase encoded by vector pGEX-3X (Pharmacia)
T10 sequence: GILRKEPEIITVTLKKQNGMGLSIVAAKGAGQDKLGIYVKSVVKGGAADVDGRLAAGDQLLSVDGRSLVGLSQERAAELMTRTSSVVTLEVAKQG

Binding result, no binding:
Biotin-AWDDSARAAGGQGLHVTAL [LPAP C-terminal peptide AA30L, biotinylated]
B1
Biotin-QATSENGHSARQHVVADTEL [CD34 C-terminal peptide AA7L, biotinylated]
B2

What follows are binders tested against T11, GST-MPP1 PDZ domain fusion protein (Homo sapiens (Human), UniProt Q00013 67-152) (assay: A/G assays).
T11 construct: also called p55; 55 Kd erythrocyte membrane protein; not shown: glutathione S-transferase encoded by vector pGEX-3X (Pharmacia)
T11 sequence: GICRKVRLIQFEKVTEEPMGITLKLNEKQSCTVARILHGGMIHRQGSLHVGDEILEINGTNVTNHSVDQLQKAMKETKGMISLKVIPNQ

Binding result, no binding:
Biotin-AWDDSARAAGGQGLHVTAL [LPAP C-terminal peptide AA30L, biotinylated]
B1
Biotin-QATSENGHSARQHVVADTEL [CD34 C-terminal peptide AA7L, biotinylated]
B2

The binders below were run against T12, GST-TIAM1 PDZ domain fusion protein (Homo sapiens (Human), UniProt Q13009 845-931) (assay: A/G assays).
T12 construct: also called TLAM1; T-lymphoma invasion and metastasis inducing protein 1; not shown: glutathione S-transferase encoded by vector pGEX-3X (Pharmacia)
T12 sequence (Q13009 other isoform, or with tags, fused parts or gaps): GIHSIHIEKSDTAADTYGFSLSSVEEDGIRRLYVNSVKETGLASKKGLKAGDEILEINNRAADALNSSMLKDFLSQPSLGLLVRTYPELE

Binding result, no binding:
Biotin-AWDDSARAAGGQGLHVTAL [LPAP C-terminal peptide AA30L, biotinylated]
B1
Biotin-QATSENGHSARQHVVADTEL [CD34 C-terminal peptide AA7L, biotinylated]
B2

Each binder was assayed against T13, GST-LIM protein PDZ domain fusion protein (Human, UniProt Q96HC4 2-85) (assay: A/G assays).
T13 construct: also called Human LIM protein; not shown: glutathione S-transferase encoded by vector pGEX-3X (Pharmacia)
T13 sequence: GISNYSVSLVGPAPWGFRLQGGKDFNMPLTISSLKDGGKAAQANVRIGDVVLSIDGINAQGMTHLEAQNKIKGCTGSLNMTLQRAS

Binding result, no binding:
Biotin-AWDDSARAAGGQGLHVTAL [LPAP C-terminal peptide AA30L, biotinylated]
B1
Biotin-QATSENGHSARQHVVADTEL [CD34 C-terminal peptide AA7L, biotinylated]
B2

The binders below were run against T14, GST-RGS12 PDZ domain fusion protein (human, UniProt O14924 17-85) (assay: A/G assays).
T14 construct: also called human regulator of G-protein signalling 12; not shown: glutathione S-transferase encoded by vector pGEX-3X (Pharmacia)
T14 sequence: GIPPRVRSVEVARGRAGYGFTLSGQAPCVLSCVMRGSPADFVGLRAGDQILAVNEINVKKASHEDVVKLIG

Binding result, no binding:
Biotin-AWDDSARAAGGQGLHVTAL [LPAP C-terminal peptide AA30L, biotinylated]
B1
Biotin-QATSENGHSARQHVVADTEL [CD34 C-terminal peptide AA7L, biotinylated]
B2
